Measurements taken from the supplement of paper PMC9112550, “Optimization of the antimicrobial peptide Bac7 by deep mutational scanning” (BMC Biology, 2022).

System: Escherichia coli TOP10
Assay: shrunken log2 fold change of peptide-encoding DNA abundance (4.5 h post-induction vs induction); higher = less antimicrobial activity (less host growth inhibition)
Conditions: time post-induction: 4.5 h; library: site-saturation at positions 5, 18, 19, 20
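Further: peptides expressed intracellularly from a pBAD plasmid library in pooled LB shake-flask culture, induced with 0.3% L-arabinose, DNA abundance read by NGS, three biological replicates, DESeq2 with apeglm shrinkage.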

Sequence | shrunken log2 fold change
RRIRDRPPRLPRPRPRPIAYPRP | -0.114
RRIRERPPRLPRPRPRPKHMPRP | -0.21
RRIRWRPPRLPRPRPRPNYWPRP | 1.21
RRIRHRPPRLPRPRPRPPRFPRP | 0.578
RRIRYRPPRLPRPRPRPEEPPRP | 0.115
RRIRDRPPRLPRPRPRPVWSPRP | 0.065
RRIRERPPRLPRPRPRPRGIPRP | -0.102
RRIRVRPPRLPRPRPRPIYNPRP | -0.675
RRIRCRPPRLPRPRPRPPTVPRP | 0.202
RRIRARPPRLPRPRPRPCHRPRP | 0.0386
RRIRYRPPRLPRPRPRPLAYPRP | -0.15
RRIRIRPPRLPRPRPRPHDPPRP | -0.296
RRIRLRPPRLPRPRPRPTQCPRP | 0.0455
RRIRVRPPRLPRPRPRPKTQPRP | 0.0766
RRIRARPPRLPRPRPRPKCLPRP | 0.613
RRIRVRPPRLPRPRPRPNYFPRP | -0.303
RRIRHRPPRLPRPRPRPIFQPRP | 0.153
RRIRPRPPRLPRPRPRPGYWPRP | 0.278
RRIRWRPPRLPRPRPRPESYPRP | -0.134
RRIRWRPPRLPRPRPRPMIVPRP | 2.28
RRIRLRPPRLPRPRPRPRWIPRP | -0.074
RRIRFRPPRLPRPRPRPIRAPRP | -0.0742
RRIRERPPRLPRPRPRPLNCPRP | -1.25
RRIRERPPRLPRPRPRPWITPRP | -0.00674
RRIRGRPPRLPRPRPRPCDNPRP | 0.0785

Sequence | shrunken log2 fold change
RRIRIRPPRLPRPRPRPQNPPRP | -0.38
RRIRWRPPRLPRPRPRPYKVPRP | -0.482
RRIRRRPPRLPRPRPRPTEPPRP | 0.4
RRIRVRPPRLPRPRPRPTCWPRP | 0.835
RRIRVRPPRLPRPRPRPYIKPRP | -0.982
RRIRTRPPRLPRPRPRPVDHPRP | -0.216
RRIRPRPPRLPRPRPRPDFFPRP | -0.0853
RRIRCRPPRLPRPRPRPNFDPRP | -0.179
RRIRERPPRLPRPRPRPAQGPRP | 0.473
RRIRVRPPRLPRPRPRPDCMPRP | 0.116
RRIRERPPRLPRPRPRPALQPRP | 0.22
RRIRKRPPRLPRPRPRPSICPRP | 0.242
RRIRGRPPRLPRPRPRPCPRPRP | 0.23
RRIRARPPRLPRPRPRPPQGPRP | 0.689
RRIRHRPPRLPRPRPRPRGCPRP | 0.387
RRIRTRPPRLPRPRPRPDWRPRP | 0.0352
RRIRIRPPRLPRPRPRPYCNPRP | -0.154
RRIRTRPPRLPRPRPRPNGSPRP | -0.198
RRIRIRPPRLPRPRPRPGYCPRP | -0.371
RRIRGRPPRLPRPRPRPSHYPRP | -0.0921
RRIRVRPPRLPRPRPRPAPCPRP | 0.168
RRIRGRPPRLPRPRPRPAEEPRP | 1.15
RRIRDRPPRLPRPRPRPHLFPRP | 0.00233
RRIRTRPPRLPRPRPRPAGVPRP | 0.107
RRIRTRPPRLPRPRPRPDQEPRP | 0.105

Sequence | shrunken log2 fold change
RRIRTRPPRLPRPRPRPACIPRP | 0.599
RRIRYRPPRLPRPRPRPYWAPRP | -1.11
RRIRPRPPRLPRPRPRPDTSPRP | -0.738
RRIRSRPPRLPRPRPRPWCGPRP | 0.0715
RRIRKRPPRLPRPRPRPQRYPRP | 0.132
RRIRRRPPRLPRPRPRPYAWPRP | 0.157
RRIRQRPPRLPRPRPRPQCFPRP | -1.14
RRIRLRPPRLPRPRPRPECSPRP | 0.177
RRIRQRPPRLPRPRPRPSLGPRP | -0.162
RRIRMRPPRLPRPRPRPFLCPRP | -0.0722
RRIRLRPPRLPRPRPRPRHHPRP | -0.0411
RRIRNRPPRLPRPRPRPLKTPRP | -0.0746
RRIRLRPPRLPRPRPRPYQQPRP | -0.18
RRIRQRPPRLPRPRPRPSWKPRP | -0.244
RRIRTRPPRLPRPRPRPCLHPRP | -1.17
RRIRQRPPRLPRPRPRPLREPRP | 1.44
RRIRVRPPRLPRPRPRPNGYPRP | -0.199
RRIRDRPPRLPRPRPRPSVYPRP | -0.404
RRIRNRPPRLPRPRPRPQQQPRP | 0.103
RRIRRRPPRLPRPRPRPESLPRP | 0.0493
RRIRRRPPRLPRPRPRPHFRPRP | -0.0205
RRIRERPPRLPRPRPRPNNVPRP | -0.28
RRIRMRPPRLPRPRPRPWARPRP | 0.306
RRIRDRPPRLPRPRPRPPHNPRP | -0.103
RRIRMRPPRLPRPRPRPLWKPRP | 0.0435

Sequence | shrunken log2 fold change
RRIRARPPRLPRPRPRPQSYPRP | -0.118
RRIRSRPPRLPRPRPRPLYTPRP | -0.422
RRIRSRPPRLPRPRPRPEHLPRP | -0.258
RRIRPRPPRLPRPRPRPASWPRP | 0.362
RRIRSRPPRLPRPRPRPWVCPRP | 0.101
RRIRGRPPRLPRPRPRPRHQPRP | 0.026
RRIRIRPPRLPRPRPRPESEPRP | -0.0338
RRIRCRPPRLPRPRPRPNMYPRP | -0.916
RRIRLRPPRLPRPRPRPWYQPRP | -0.149
RRIRRRPPRLPRPRPRPLQNPRP | 0.045
RRIRWRPPRLPRPRPRPHWEPRP | 0.323
RRIRFRPPRLPRPRPRPPPCPRP | 0.898
RRIRTRPPRLPRPRPRPQGDPRP | -0.0192
RRIRMRPPRLPRPRPRPKQVPRP | 0.0554
RRIRRRPPRLPRPRPRPYDMPRP | -0.532
RRIRSRPPRLPRPRPRPWPFPRP | 0.0554
RRIRWRPPRLPRPRPRPNLMPRP | -0.227
RRIRWRPPRLPRPRPRPAIKPRP | 0.0964
RRIRERPPRLPRPRPRPPRDPRP | 0.226
RRIRERPPRLPRPRPRPHPDPRP | 0.0161
RRIRTRPPRLPRPRPRPMDPPRP | -0.107
RRIRVRPPRLPRPRPRPHHFPRP | -0.114
RRIRYRPPRLPRPRPRPRGVPRP | 0.0913
RRIRFRPPRLPRPRPRPKYHPRP | -0.428
RRIRMRPPRLPRPRPRPVWCPRP | -0.0672

Sequence | shrunken log2 fold change
RRIRQRPPRLPRPRPRPMSEPRP | 0.0772
RRIRGRPPRLPRPRPRPANPPRP | 0.476
RRIRQRPPRLPRPRPRPPWIPRP | -0.145
RRIRMRPPRLPRPRPRPHRMPRP | -0.0254
RRIRKRPPRLPRPRPRPYCCPRP | -0.237
RRIRKRPPRLPRPRPRPVVMPRP | 3.16
RRIRIRPPRLPRPRPRPATLPRP | -0.559
RRIRTRPPRLPRPRPRPKVIPRP | -0.503
RRIRNRPPRLPRPRPRPSQNPRP | -0.386
RRIRTRPPRLPRPRPRPNWEPRP | 0.00854
RRIRDRPPRLPRPRPRPTAVPRP | 0.421
RRIRSRPPRLPRPRPRPFQLPRP | -0.0513
RRIRRRPPRLPRPRPRPEMYPRP | 0.0119
RRIRQRPPRLPRPRPRPDPWPRP | 0.161
RRIRQRPPRLPRPRPRPQAWPRP | 0.0305
RRIRCRPPRLPRPRPRPNMKPRP | -0.769
RRIRIRPPRLPRPRPRPSNWPRP | -0.257
RRIRSRPPRLPRPRPRPYYPPRP | -2.8
RRIRKRPPRLPRPRPRPDQHPRP | -0.0427
RRIRARPPRLPRPRPRPVNGPRP | -0.133
RRIRRRPPRLPRPRPRPVAPPRP | 0.436
RRIRDRPPRLPRPRPRPKQIPRP | -0.0135
RRIRTRPPRLPRPRPRPVPHPRP | -0.0291
RRIRGRPPRLPRPRPRPIGHPRP | 0.39
RRIRRRPPRLPRPRPRPPSTPRP | 0.585

Sequence | shrunken log2 fold change
RRIRWRPPRLPRPRPRPEVQPRP | 0.69
RRIRGRPPRLPRPRPRPTMWPRP | 0.757
RRIRCRPPRLPRPRPRPFTAPRP | -0.553
RRIRTRPPRLPRPRPRPSLDPRP | -0.286
RRIRNRPPRLPRPRPRPDARPRP | 0.222
RRIRARPPRLPRPRPRPIPPPRP | 0.217
RRIRCRPPRLPRPRPRPNGGPRP | -0.00453
RRIRCRPPRLPRPRPRPKLYPRP | -0.38
RRIRARPPRLPRPRPRPIKWPRP | 0.235
RRIRLRPPRLPRPRPRPWWVPRP | 0.0559
RRIRQRPPRLPRPRPRPMTIPRP | -0.227
RRIRFRPPRLPRPRPRPHFRPRP | -0.634
RRIRWRPPRLPRPRPRPGCKPRP | 0.123
RRIRARPPRLPRPRPRPPMLPRP | 0.805
RRIRSRPPRLPRPRPRPVVVPRP | 0.1
RRIRERPPRLPRPRPRPHSYPRP | -0.0459
RRIRPRPPRLPRPRPRPRAQPRP | 0.33
RRIRNRPPRLPRPRPRPYTNPRP | -0.424
RRIRWRPPRLPRPRPRPAWEPRP | 0.534
RRIRGRPPRLPRPRPRPSKYPRP | 0.00351
RRIRNRPPRLPRPRPRPSCTPRP | -0.34
RRIRLRPPRLPRPRPRPREVPRP | 0.59
RRIRSRPPRLPRPRPRPSRTPRP | 0.822
RRIRVRPPRLPRPRPRPYVRPRP | -0.492
RRIRQRPPRLPRPRPRPYKRPRP | -0.213
